Results as given in article PMC3021122.

Target: Shigella flexneri Spa15 (residues 1-133), N-terminal His tag, unlabelled (Shigella flexneri) (UniProt P35530)
Assay: multi-angle laser light scattering; co-purified Spa15:IpgB1 complex; data not shown

Substance: Shigella flexneri IpgB1 (residues 1-208) (natural protein)
- stoichiometry N (Spa15 per IpgB1): 2
